Measurements from the RNAGym collection of RNA variant scans (doi:10.7554/elife.80360).

B1: CPEB3 Ribozyme (parent)
chain: GGGGGCCACAGCAGAAGCGUUCACGUCGCGGCCCCUGUCAGAUUCUGGUGAAUCUGCGAAUUCUGCUGU

Variants of: B1
Assay: self-cleavage, relative activity (ratio to wild type); higher = more cleavage; co-transcriptional
With U21A G25U the self-cleavage was 0.136.
U20C U62C gave a self-cleavage of 0.204.
In the case of U20G U44G, the self-cleavage is reported as 0.168.
U21C C35G showed a self-cleavage of 0.206.
With U21C C35U the self-cleavage was 0.716.
Variant U21C U53C has a self-cleavage of 0.726.
Work on U21C U53A yielded a self-cleavage of 0.765.
Work on U21A A60G yielded a self-cleavage of 0.879.
U21A A60U showed a self-cleavage of 0.586.
With U21A A60C the self-cleavage was 0.29.
U21C C63A gave a self-cleavage of 0.47.
In the case of U21C C63U, the self-cleavage is reported as 0.804.
U21C C63G showed a self-cleavage of 0.635.
Variant U20C U53C has a self-cleavage of 0.161.
In the case of U21A C63G, the self-cleavage is reported as 0.727.
U21A C63U gave a self-cleavage of 0.921.
Variant U21A C63A has a self-cleavage of 0.795.
Variant U21A C57U has a self-cleavage of 0.447.
Work on U21A C57G yielded a self-cleavage of 0.361.
U21A C57A showed a self-cleavage of 0.268.
With U20G U36A the self-cleavage was 0.13.
In the case of U20G U36C, the self-cleavage is reported as 0.0978.
With U20G G47A the self-cleavage was 0.247.
With U20G G47U the self-cleavage was 0.226.
For U20G G47C, the self-cleavage was 0.189.
Variant U20G U38A has a self-cleavage of 0.288.
For U20G U38C, the self-cleavage was 0.185.
U21A G31U gave a self-cleavage of 0.595.
U21A G31A showed a self-cleavage of 0.803.
Work on U20G A51G yielded a self-cleavage of 0.193.
In the case of U21A U26C, the self-cleavage is reported as 0.985.
In the case of U21A U26A, the self-cleavage is reported as 0.796.
With U21A U26G the self-cleavage was 0.869.
In the case of U20G C66U, the self-cleavage is reported as 0.216.
For U20G G50A, the self-cleavage was 0.206.
In the case of U20G G50C, the self-cleavage is reported as 0.246.
With U21A G37U the self-cleavage was 0.356.
In the case of U21A C39G, the self-cleavage is reported as 0.981.
For U21A C39U, the self-cleavage was 0.928.
In the case of U21C C39A, the self-cleavage is reported as 0.498.
Work on U21C C39U yielded a self-cleavage of 0.842.
Work on U21C G58U yielded a self-cleavage of 0.952.
For U21C G58C, the self-cleavage was 0.826.
U21C G58A showed a self-cleavage of 0.673.
For U20G U61G, the self-cleavage was 0.171.
U20G U61C showed a self-cleavage of 0.19.
In the case of U21C C54A, the self-cleavage is reported as 0.769.
With U21C C54U the self-cleavage was 0.883.
U21C C54G gave a self-cleavage of 0.688.
For U20G C24U, the self-cleavage was 0.144.
U20G C24G showed a self-cleavage of 0.146.
Variant U21C A52C has a self-cleavage of 0.854.
With U21A U55C the self-cleavage was 0.874.
With U21A U44C the self-cleavage was 0.817.
Variant U21A U44A has a self-cleavage of 0.901.
For U21A U44G, the self-cleavage was 0.952.
U21C G31U showed a self-cleavage of 0.395.
For U21C C24U, the self-cleavage was 0.429.
U21C C24G showed a self-cleavage of 0.223.
U20G C33A gave a self-cleavage of 0.135.
Work on U20G C33G yielded a self-cleavage of 0.261.
In the case of U21A G30C, the self-cleavage is reported as 0.532.
In the case of U21A G30U, the self-cleavage is reported as 0.343.
U21C C22A showed a self-cleavage of 0.24.
Work on U21C U38G yielded a self-cleavage of 0.432.
With U21C U38A the self-cleavage was 0.171.
Variant U21C U38C has a self-cleavage of 0.808.
For U21C U43A, the self-cleavage was 0.771.
Work on U21C U43G yielded a self-cleavage of 0.682.
U21A C34U gave a self-cleavage of 0.995.
In the case of U21A C34A, the self-cleavage is reported as 0.708.
For U20G U69G, the self-cleavage was 0.322.
U20G U69C gave a self-cleavage of 0.281.
U20G G25A gave a self-cleavage of 0.129.
With U20G G25U the self-cleavage was 0.185.
U21A U64A showed a self-cleavage of 0.91.
U21A U64C showed a self-cleavage of 0.874.
U21C C66G showed a self-cleavage of 0.744.
U21C C66U gave a self-cleavage of 0.887.
In the case of U20G U62G, the self-cleavage is reported as 0.292.
U20G U62A gave a self-cleavage of 0.183.
Work on U21A U43G yielded a self-cleavage of 0.833.
With U21A U43A the self-cleavage was 0.906.
In the case of U21A C32G, the self-cleavage is reported as 0.504.
For U21A U49A, the self-cleavage was 0.96.
In the case of U21A U49G, the self-cleavage is reported as 0.95.
U21A U49C showed a self-cleavage of 0.972.
U21A G68C showed a self-cleavage of 1.02.
U21A G68U showed a self-cleavage of 0.976.
Work on U21C U62G yielded a self-cleavage of 0.614.
Work on U21C U62C yielded a self-cleavage of 0.516.
Work on U21A G28C yielded a self-cleavage of 0.193.
U21A G28A showed a self-cleavage of 0.219.
U20G gave a self-cleavage of 0.207.
With U21A U53A the self-cleavage was 0.936.
For U21A U53G, the self-cleavage was 0.863.
In the case of U21A U53C, the self-cleavage is reported as 0.927.
U20G G48A showed a self-cleavage of 0.127.
With U20G G48U the self-cleavage was 0.141.
U21A G41A gave a self-cleavage of 0.855.
U21A G41U showed a self-cleavage of 0.824.
Variant U21A G41C has a self-cleavage of 0.694.
For U21C A40G, the self-cleavage was 0.719.
For U21C A40U, the self-cleavage was 0.642.
Work on U21C A40C yielded a self-cleavage of 0.372.
U21A G47A gave a self-cleavage of 0.969.
U21A G47U gave a self-cleavage of 0.992.
With U21A G47C the self-cleavage was 0.988.
Work on U21A G58A yielded a self-cleavage of 0.898.
In the case of U21A C45G, the self-cleavage is reported as 0.956.
U21A C45U showed a self-cleavage of 0.967.
U21A C45A showed a self-cleavage of 1.01.
U20C U61A gave a self-cleavage of 0.236.
U20C U61C gave a self-cleavage of 0.182.
Work on U21C A23U yielded a self-cleavage of 0.803.
U21C A23C gave a self-cleavage of 0.608.
In the case of U20G U21G, the self-cleavage is reported as 0.148.
In the case of U20G U21A, the self-cleavage is reported as 0.252.
With U21C G37C the self-cleavage was 0.23.
With U20G G28C the self-cleavage was 0.145.
U20G G28A gave a self-cleavage of 0.186.
In the case of U21C A51C, the self-cleavage is reported as 0.913.
Work on U21C A51U yielded a self-cleavage of 0.861.
Variant U20G A59U has a self-cleavage of 0.176.
With U20G A59G the self-cleavage was 0.204.
For U20C U67G, the self-cleavage was 0.164.
Variant U20C U67A has a self-cleavage of 0.233.
U21C C32G gave a self-cleavage of 0.226.
With U21C C32A the self-cleavage was 0.741.
For U21C C32U, the self-cleavage was 0.918.
Work on U21C C29U yielded a self-cleavage of 0.217.
U21C C29G gave a self-cleavage of 0.247.
With U21C G30C the self-cleavage was 0.235.
With U21C G30A the self-cleavage was 0.522.
Variant U21C G30U has a self-cleavage of 0.268.
In the case of U20G A60C, the self-cleavage is reported as 0.191.
U20G A60U showed a self-cleavage of 0.073.
For U20G A60G, the self-cleavage was 0.0625.
In the case of U21A C24G, the self-cleavage is reported as 0.214.
In the case of U21A C24A, the self-cleavage is reported as 0.541.
U20G C45U gave a self-cleavage of 0.202.
U20G C45G showed a self-cleavage of 0.11.
For U20G C45A, the self-cleavage was 0.221.
For U21A C66A, the self-cleavage was 0.781.
In the case of U21A C66G, the self-cleavage is reported as 0.835.
Work on U21A C22A yielded a self-cleavage of 0.132.
With U21A C22G the self-cleavage was 0.0886.
For U21A A59G, the self-cleavage was 1.
Work on U21A A59C yielded a self-cleavage of 0.681.
In the case of U20G U67G, the self-cleavage is reported as 0.152.
For U21C G41A, the self-cleavage was 0.677.
Variant U21C G41U has a self-cleavage of 0.73.
U21C G41C gave a self-cleavage of 0.538.
With U20G A52C the self-cleavage was 0.148.
Work on U20G A52U yielded a self-cleavage of 0.183.
For U20G A52G, the self-cleavage was 0.292.
For U20G C63G, the self-cleavage was 0.21.
Variant U20G C63U has a self-cleavage of 0.246.
Variant U20G C34U has a self-cleavage of 0.268.
In the case of U20G C34G, the self-cleavage is reported as 0.28.
U20G A23U showed a self-cleavage of 0.243.
U20G A23C showed a self-cleavage of 0.196.
U20G A23G showed a self-cleavage of 0.32.
Variant U20G G30A has a self-cleavage of 0.126.
Variant U21A U36A has a self-cleavage of 0.253.
For U21A U36G, the self-cleavage was 0.272.
U21A U36C gave a self-cleavage of 0.693.
